In US20160146830A1 (published 2016):
Where a chain is given by its changes, count along the chain named.

B1: TT-9 (antibody, V domains shown)
VH: QVQLQESGPGLVKPSGTLSLTCAVSGVPVYTGHWWTWVRQAPGKGLEWIGEIHHTVTTNYNPSLRSRVTISEDRSKNQISLTLQSVTAADTAVYFCARGEDCVGGSCYSADWGQGILVTVSS
VL: EIVLTQSPSSLSASVGDRVTITCRASQNIHLFLNWYQQRPGRVPKVLIYATSTLQSGVPSRFSGSGSGTDFTLTISSVQPEDFATYYCQQSFSTPRTFGPGTKVEIK
notes: also called VH-10/VL-10
B2: TT-2 (antibody, V domains shown)
VH: QVQLVQSGGGVKQPGGSLRLSCTASGFTFEDFNMHWVRQAPGKGLEWISYISGDGDRTHYSDSVRGRFTISRDNSGNSLYLQMTSLRTEDAGFYYCGKSYDYIRENLDSWGQGTLVTVSS
VL: QPGLTQPPSVSVAPGQTARITCGGNNIGSRHVHWYQQRPGQAPVLVVYDDDARPSGISGRFSGSNSGNTATLTISWVEAGDEADYYCQVSDSGREWGVFGSGTKVTVL
notes: also called VH-2/VL-2
B3: TT-4 (antibody, V domains shown)
VH: QVTLKESGPALVKPTQTLTLTCTFSGFSLLSSGMCVSWIRQPPGKALEWLARIDWDEKKYYSPSLKTRLTISKDTSKDQVVLTMTNMDPLDTAMYSCARGVVPAGIPFDFWGQGIMVTVSS
VL: ETTLTQSPSTLPASVGDRVTITCRASENINSWLAWYQQKPGKAPKILIYRASNLESGVPSRFSGSGSGTEFTLTISSLQPDDFATYYCQHFDKYFSWTFGHGTKVEIK
notes: also called VH-4/VL-4
B4: TT-11 (antibody, V domains shown)
VH: QVQLVESGAEVKKPGASVRVSCKASGYTFTNYGLAWVRQAPGQGLEWMGWITVYNGHTSYAQKFHDRVTMTTDTSTRTAYLEVRNLGSDDTAVYYCARKPRFYYDTSAWFEFWGQGTLVTVSS
VL: DIVLTQSPETLSVSPGESATLSCRASQSVSTDLAWYQHKPGQAPRLLIWGASTRATGIPARFSGSGSGTEFTLTISSLQSEDFAICFCHQYNNWPTFGQGTKVEIK
notes: also called VH-13/VL-13
B5: TT-8 (antibody, V domains shown)
VH: QVQLVESGGGLVKPGGSLRLSCAASGFSFSHYSMNWIRQAPGKGLEWVASITSGSTNMVYADSLRARFSISRDNAKNSLYLQMDSLSAEDTAVYYCARKGMGHYFDFWGQGTPVTVSS
VL: QTVVTQEPSSSVSLGGTVTLTCGLTSGPVTGAYYPSWHQQTPGQAPRTLIYNTYSLSSGVSDRFSGSILGNKAALTISGAQADDESDYYCVLYMGSGIWMFGGGTKLTVL
notes: also called VH-9/VL-9
B6: TT-3 (antibody, V domains shown)
VH: QVQLVQSGAEVKKPGASVRVSCKASGYTFTRYAMHWVRQAPGQRPEWMGWINVDNGNTEYSQKFQGRLTITRDTSASTAYMELSSLTSDDTAVYYCAKDRVRVVQAATTLDFWGQGTLVTVSS
VL: EIVLTQSPGTLSLSPGERATLSCRASQTIPSKYLGWYQQKLGQAPRLLIYGASSRATGIPDRFSGSGSGTDFTLTISRLEPEDFAVYYCQQYGSLSAITFGQGTRLEIK
notes: also called VH-3/VL-3
B7: TT-7 (antibody, V domains shown)
VH: QVQLQESGPGLVRPSQTLSLTCTVSGDSISDGDSFWSWIRQPPGKGPEWIGYISSSGTTYYYPSLRGRLTVSLDASKNQFSLSLTSVTAADTAVYYCARARNYGFPHFFDFWGRGTLVTVSS
VL: DIQMTQSPSTLSASVGDSVTITCRASQSITRWLAWYQQKPGKAPKLLIYKASLLESGVPSRFSGSGSGTEFTLTISSLQPDDFATYYCQQYNSYSPWTFGPGTKLEIK
notes: also called VH-8/VL-8
B8: TT-6 (antibody, V domains shown)
VH: QVQLVESGSEVRKPGASVKVSCKASGYTFSRYGLTWVRQAPGQGLEWMGWISGYNSNTNYAPKFQGRVTMTTDTSTNTAYLELRSLRSNDTAVYYCARDYFHSGSQYFFDYWGQGSLVTVSS
VL: DIRLTQSPSSLSASVGDRVTITCRSSQTISTYLNWYQQKPGEAPKILIYAASSLHTGVPSRFSGSGSGTDFTLTITSLQPEDFAIYHCQQSYSTPYTFGQGTKVEIK
notes: also called VH-7/VL-7
B9: TT-5 (antibody, V domains shown)
VH: QVQLQESGPGLVKPSETLSLTCTVSGGSINSYYWSWIRQSPGKGLEWIGYIYYTGINKYNPSLKSRVTISMDTSKRQVSLKVTSLTPADTAVYFCARLHPTCASTRCPENYGMDVWGQGTTVAVSS
VL: B8 VL
notes: also called VH-5/VL-5
B10: TT-1 (antibody, V domains shown)
VH: QVQLVESGGGLVQPGRSLRLSCVGSGFSFESYAMHWVRLAPGKGLEWVAGISWDSGAKGNADSVEGRFTISRDNAKKSVYLEMRSLRPEDTAFYYCAKAPIIGPKYYFYMDVWGKGTSVTVSS
VL: EIVLTQSPGTLSLSPGERATLSCRASQRVKSSYLAWYQQKPGQAPRLLIYDASTRATGIPDRFSGSGSGTDFTLTISRLEPEDVAVYYCQQYGTSRGTFGQGTRLEIK
notes: also called VH-1/VL-1
B11: TT-10 (antibody, V domains shown)
VH: B10 VH with V5Q, L39Q, V79L, Y106H
VL: B10 VL
notes: also called VH-11/VL-11

biological target: Tetanus toxoid (TT) (UniProt P04958 2-1315); test: competitive ELISA, IgG equilibrated with soluble TT, TT-coated plate
Sequence (P04958 2-457 limits assumed, chain 1 of 2): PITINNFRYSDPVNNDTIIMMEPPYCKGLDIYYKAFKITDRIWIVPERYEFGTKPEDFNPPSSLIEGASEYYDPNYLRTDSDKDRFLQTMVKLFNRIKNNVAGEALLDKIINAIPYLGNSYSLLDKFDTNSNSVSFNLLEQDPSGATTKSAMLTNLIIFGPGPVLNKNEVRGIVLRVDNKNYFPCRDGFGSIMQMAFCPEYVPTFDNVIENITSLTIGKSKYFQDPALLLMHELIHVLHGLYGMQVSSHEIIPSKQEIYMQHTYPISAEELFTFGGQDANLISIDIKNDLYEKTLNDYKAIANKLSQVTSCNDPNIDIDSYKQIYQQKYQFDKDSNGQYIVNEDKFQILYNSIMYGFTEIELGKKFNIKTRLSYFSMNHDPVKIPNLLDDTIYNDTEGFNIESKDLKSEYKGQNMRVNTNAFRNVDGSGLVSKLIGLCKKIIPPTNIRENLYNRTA
Sequence (P04958 458-1315 limits assumed, chain 2 of 2): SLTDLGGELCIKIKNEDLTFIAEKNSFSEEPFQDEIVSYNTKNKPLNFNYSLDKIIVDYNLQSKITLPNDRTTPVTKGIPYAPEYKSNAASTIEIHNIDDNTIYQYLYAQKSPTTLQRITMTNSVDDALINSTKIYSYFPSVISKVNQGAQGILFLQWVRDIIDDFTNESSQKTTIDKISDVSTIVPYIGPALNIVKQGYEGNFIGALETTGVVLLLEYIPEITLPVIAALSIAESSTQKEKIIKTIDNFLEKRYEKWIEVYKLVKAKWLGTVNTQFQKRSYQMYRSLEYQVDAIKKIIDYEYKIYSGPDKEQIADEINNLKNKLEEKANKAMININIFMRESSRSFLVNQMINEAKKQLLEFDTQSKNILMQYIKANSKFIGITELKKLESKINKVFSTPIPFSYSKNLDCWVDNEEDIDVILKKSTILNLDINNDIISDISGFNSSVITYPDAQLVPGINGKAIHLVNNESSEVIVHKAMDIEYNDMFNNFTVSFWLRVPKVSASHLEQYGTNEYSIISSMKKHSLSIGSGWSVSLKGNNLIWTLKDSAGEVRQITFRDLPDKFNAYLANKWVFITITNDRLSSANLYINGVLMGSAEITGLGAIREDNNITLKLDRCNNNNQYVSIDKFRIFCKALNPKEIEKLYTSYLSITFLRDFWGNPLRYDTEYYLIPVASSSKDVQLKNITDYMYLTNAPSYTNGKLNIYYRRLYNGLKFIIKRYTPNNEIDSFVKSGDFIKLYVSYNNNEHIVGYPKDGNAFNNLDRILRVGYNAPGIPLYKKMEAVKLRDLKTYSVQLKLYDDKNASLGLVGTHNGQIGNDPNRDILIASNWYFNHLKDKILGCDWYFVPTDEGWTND

Binder	Kd
B1	0.1 nM
B2	22.6 nM
B3	3.2 nM
B4	1.6 nM
B5	2.8 nM
B6	3.7 nM
B7	0.5 nM
B8	0.6 nM
B9	18.1 nM
B10	1.6 nM
B11	0.9 nM
